Reference: PMC2755476, “The Sam domain of the lipid phosphatase Ship2 adopts a common model to interact with Arap3-Sam and EphA2-Sam” (BMC Structural Biology, 2009)

T1: Sam domain of Arap3 (Arap3-Sam), His-tag cut away with thrombin (human, UniProt Q8WWN8 1-80)
T1 construct: Arap3, human, residues 1 to 80, encompassing the Sam domain (residues 4 to 68); same construct as m1 after thrombin cleavage of the His-tag; A few vector residues probably remain at the N-terminus after thrombin cleavage; source: E. coli BL21-Gold (DE3), pET15b, purified (nickel column); His-tag cut with thrombin, thrombin removed on a benzamidine column; not shown: His6, N-terminal, cleaved
T1 sequence (looked up): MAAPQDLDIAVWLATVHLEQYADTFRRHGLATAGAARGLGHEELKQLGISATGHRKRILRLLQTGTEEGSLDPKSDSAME


Columns and labels:
Arap3 Sam (Homo sapiens) = Arap3 Sam (Homo sapiens) (UniProt Q8WWN8); test: ITC; details: cited from earlier work
EphA2 Sam (Homo sapiens) = EphA2 Sam (Homo sapiens) (UniProt P29317); test: ITC; details: cited from earlier work
[1] = target: T1, Sam domain of Arap3 (Arap3-Sam), …; test: ITC; 25 C, VP-ITC; Shiptide (1 mM) titrated into Arap3-Sam (75 uM, His-tag cut away); 1 x PBS pH 7.7; one binding site model; repeated twice; details: both partners purified

Sequence of Ship2 Sam (O15357 1193-1258): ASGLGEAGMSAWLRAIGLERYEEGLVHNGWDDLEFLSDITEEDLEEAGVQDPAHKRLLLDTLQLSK
Sequence of EphA2 Sam (Homo sapiens) (P29317 901-971): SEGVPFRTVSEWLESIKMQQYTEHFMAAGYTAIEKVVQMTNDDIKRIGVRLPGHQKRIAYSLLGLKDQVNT

Row | Kd [1] [nM] | dH [1] [kcal/mol] | stoichiometry N [1] | Molecule | Kd (Arap3 Sam (Homo sapiens)) [nM] | Kd (EphA2 Sam (Homo sapiens)) [nM]
1 | – | – | – | Ship2 Sam (from UniProt O15357) | 100 | 750
2 | 40000 ± 7000 | -2.6 ± 0.922 | 0.8 ± 0.1 | Ac-EGLVHNGWDDLEFLSDITEEDL-NH2 (region of Ship2-Sam, amino acids from 43 to 64. numbers count on: the Ship2-Sam construct, as in PDB 2K4P; source: synthetic peptide; purchased from the Protein/DNA Facility of the Medical College of Wisconsin) [Ship2-peptide Ac-EGLVHNGWDDLEFLSDITEEDL-NH2 (Shiptide)] | – | –
